Experimental data published in US20180155451A1 (published 2018).

B1: GpH7-A5/GpH7-B3 variant P329_01G/GpL16-k0 (antibody, human IgG1, kappa)
heavy 1: not shown
heavy 2: not shown
light: DIVMTQSPLSLPVTPGEPASISCQASESLVHSNRNTYLHWYLQKPGQSPQLLIYKVSNRFSGVPDRFSGSGSGTDFTLKISRVEAEDVGVYYCSQNTHVPPTFGQGTKVEIERTVAAPSVFIFPPSDEQLKSGTASVVCLLNNFYPREAKVQWKVDNALQSGNSQESVTEQDSKDSTYSLSSTLTLSKADYEKHKVYACEVTHQGLSSPVTKSFNRGEC
notes: He Ab: heterodimerized anti-glypican-3 IgG1, substitution in one H chain only; also called He Ab P329G
B2: GpH7-A5/GpH7-B3 variant A330_13S/GpL16-k0 (antibody, human IgG1, kappa)
heavy 1: not shown
heavy 2: not shown
light: B1 light
notes: He Ab: heterodimerized anti-glypican-3 IgG1, substitution in one H chain only; also called He Ab A330S
B3: GpH7-A5/GpH7-B3 variant A330_07I/GpL16-k0 (antibody, human IgG1, kappa)
heavy 1: not shown
heavy 2: not shown
light: B1 light
notes: He Ab: heterodimerized anti-glypican-3 IgG1, substitution in one H chain only; also called He Ab A330I
B4: heterodimerized antibody GpH7-A5/GpH7-B3 variant S267_09D/GpL16-k0 (antibody, human IgG1, kappa)
heavy 1: not shown
heavy 2: not shown
light: B1 light
notes: He Ab: anti-glypican-3 IgG1, alteration in one H chain only; also called He Ab
B5: heterodimerized antibody GpH7-A5/GpH7-B3 variant S267_02A/GpL16-k0 (antibody, human IgG1, kappa)
heavy 1: not shown
heavy 2: not shown
light: B1 light
notes: as for B4
B6: GpH7-A5/GpH7-B3 variant A330_10E/GpL16-k0 (antibody, human IgG1, kappa)
heavy 1: not shown
heavy 2: not shown
light: B1 light
notes: He Ab: heterodimerized anti-glypican-3 IgG1, substitution in one H chain only; also called He Ab A330E
B7: heterodimerized antibody GpH7-A5/GpH7-B3 variant V266_04F/GpL16-k0 (antibody, human IgG1, kappa)
heavy 1: not shown
heavy 2: not shown
light: B1 light
notes: as for B4
B8: heterodimerized antibody GpH7-A5/GpH7-B3 variant S267_16H/GpL16-k0 (antibody, human IgG1, kappa)
heavy 1: not shown
heavy 2: not shown
light: B1 light
notes: as for B4
B9: heterodimerized antibody GpH7-A5/GpH7-B3 variant P238_15Y/GpL16-k0 (antibody, human IgG1, kappa)
heavy 1: not shown
heavy 2: not shown
light: B1 light
notes: as for B4
B10: GpH7-A5/GpH7-B3 variant A327_20W/GpL16-k0 (antibody, human IgG1, kappa)
heavy 1: not shown
heavy 2: not shown
light: B1 light
notes: He Ab: heterodimerized anti-glypican-3 IgG1, substitution in one H chain only; also called He Ab A327W
B11: heterodimerized antibody GpH7-A5/GpH7-B3 variant P271_01G/GpL16-k0 (antibody, human IgG1, kappa)
heavy 1: not shown
heavy 2: not shown
light: B1 light
notes: as for B4
B12: heterodimerized antibody GpH7-A5/GpH7-B3 variant P238_08L/GpL16-k0 (antibody, human IgG1, kappa)
heavy 1: not shown
heavy 2: not shown
light: B1 light
notes: as for B4
B13: heterodimerized antibody GpH7-A5/GpH7-B3 variant S267_19Q/GpL16-k0 (antibody, human IgG1, kappa)
heavy 1: not shown
heavy 2: not shown
light: B1 light
notes: as for B4
B14: heterodimerized antibody GpH7-A5/GpH7-B3 variant S239_10E/GpL16-k0 (antibody, human IgG1, kappa)
heavy 1: not shown
heavy 2: not shown
light: B1 light
notes: as for B4
B15: heterodimerized antibody GpH7-A5/GpH7-B3 variant V266_06M/GpL16-k0 (antibody, human IgG1, kappa)
heavy 1: not shown
heavy 2: not shown
light: B1 light
notes: as for B4
B16: heterodimerized antibody GpH7-A5/GpH7-B3 variant S239_09D/GpL16-k0 (antibody, human IgG1, kappa)
heavy 1: not shown
heavy 2: not shown
light: B1 light
notes: as for B4
B17: heterodimerized antibody GpH7-A5/GpH7-B3 variant V266_07I/GpL16-k0 (antibody, human IgG1, kappa)
heavy 1: not shown
heavy 2: not shown
light: B1 light
notes: as for B4
B18: GpH7-A5/GpH7-B3 variant A330_09D/GpL16-k0 (antibody, human IgG1, kappa)
heavy 1: not shown
heavy 2: not shown
light: B1 light
notes: He Ab: heterodimerized anti-glypican-3 IgG1, substitution in one H chain only; also called He Ab A330D
B19: heterodimerized antibody GpH7-A5/GpH7-B3 variant S267_06M/GpL16-k0 (antibody, human IgG1, kappa)
heavy 1: not shown
heavy 2: not shown
light: B1 light
notes: as for B4
B20: heterodimerized antibody GpH7-A5/GpH7-B3 variant S267_03V/GpL16-k0 (antibody, human IgG1, kappa)
heavy 1: not shown
heavy 2: not shown
light: B1 light
notes: as for B4
B21: heterodimerized antibody GpH7-A5/GpH7-B3 variant Y300_10E/GpL16-k0 (antibody, human IgG1, kappa)
heavy 1: not shown
heavy 2: not shown
light: B1 light
notes: as for B4
B22: heterodimerized antibody GpH7-A5/GpH7-B3 variant S267_14T/GpL16-k0 (antibody, human IgG1, kappa)
heavy 1: not shown
heavy 2: not shown
light: B1 light
notes: as for B4
B23: heterodimerized antibody GpH7-A5/GpH7-B3 variant S267_04F/GpL16-k0 (antibody, human IgG1, kappa)
heavy 1: not shown
heavy 2: not shown
light: B1 light
notes: as for B4
B24: heterodimerized antibody GpH7-A5/GpH7-B3 variant S267_07I/GpL16-k0 (antibody, human IgG1, kappa)
heavy 1: not shown
heavy 2: not shown
light: B1 light
notes: as for B4
B25: heterodimerized antibody GpH7-A5/GpH7-B3 variant V266_08L/GpL16-k0 (antibody, human IgG1, kappa)
heavy 1: not shown
heavy 2: not shown
light: B1 light
notes: as for B4
B26: GpH7-A5/GpH7-B3 variant A330_08L/GpL16-k0 (antibody, human IgG1, kappa)
heavy 1: not shown
heavy 2: not shown
light: B1 light
notes: He Ab: substitution in one H chain only; also called He Ab A330L
B27: GpH7-A5/GpH7-B3 variant A330_03V/GpL16-k0 (antibody, human IgG1, kappa)
heavy 1: not shown
heavy 2: not shown
light: B1 light
notes: He Ab: heterodimerized anti-glypican-3 IgG1, substitution in one H chain only; also called He Ab A330V
B28: heterodimerized antibody GpH7-A5/GpH7-B3 variant S267_10E/GpL16-k0 (antibody, human IgG1, kappa)
heavy 1: not shown
heavy 2: not shown
light: B1 light
notes: as for B4
B29: GpH7-A5/GpH7-B3 variant A330_06M/GpL16-k0 (antibody, human IgG1, kappa)
heavy 1: not shown
heavy 2: not shown
light: B1 light
notes: He Ab: heterodimerized anti-glypican-3 IgG1, substitution in one H chain only; also called He Ab A330M
B30: heterodimerized antibody GpH7-A5/GpH7-B3 variant P238_10E/GpL16-k0 (antibody, human IgG1, kappa)
heavy 1: not shown
heavy 2: not shown
light: B1 light
notes: as for B4
B31: heterodimerized antibody GpH7-A5/GpH7-B3 variant P238_09D/GpL16-k0 (antibody, human IgG1, kappa)
heavy 1: not shown
heavy 2: not shown
light: B1 light
notes: as for B4

Tests used:
[1] = target: T1, FcγRIIb extracellular domain with C-terminal His tag (human, UniProt P31994 43-217); assay: SPR (Biacore), antibody captured on antigen peptide chip, FcγR as analyte; binding relative to GpH7-A5/GpH7-B3/GpL16-k0 = 100
T1 construct: extracellular domain; Soluble receptor expressed in FreeStyle293 cells; analyte in Biacore; also called FcgRIIb; 2b; not shown: His tag at the C terminus
T1 sequence (looked up): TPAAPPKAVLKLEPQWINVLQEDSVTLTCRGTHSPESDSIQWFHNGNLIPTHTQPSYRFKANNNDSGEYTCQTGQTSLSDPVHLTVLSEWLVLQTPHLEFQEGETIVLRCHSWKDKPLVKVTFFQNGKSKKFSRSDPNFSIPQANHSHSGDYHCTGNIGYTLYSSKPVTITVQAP
Experimental: (§1) The heterodimerized antibodies He Abs in which one of the H chains was introduced with an alteration were assayed for their binding activities to each activating FcγR and inhibitory FcγR according to the method described in Example 4. […] The activating FcγRs in FIGS. 26, 27, 28, and 29 are FcγRIa, FcγRIIa (R), FcγRIIa (H), and FcγRIIIa, respectively.
(§2) Analysis of interaction between objective antibody and the FcγR was carried out using Biacore T100 (GE Healthcare). HBS-EP+ (GE Healthcare) was used as the running buffer, and the measurement temperature was set to 25° C. Chips produced by immobilizing the antigen peptide by the amine coupling method to a Series S Sencor Chip CM5 (GE Healthcare), or alternatively, chips produced by allowing preliminarily biotinylated antigen peptides to interact with and immobilize onto a Series S Sensor Chip SA (certified) (GE Healthcare) were used. Antibodies of interest were captured onto an antigen peptide-immobilized chip, and allowed to interact to each FcγR diluted with running buffer. To regenerate and repeatedly use the chip, the antibodies captured on the chip were washed off by reacting 10 mM glycine-HCl, pH 1.5.

[2] = target: T2, FcγRIa extracellular domain with C-terminal His tag (human, UniProt P12314 16-292); assay: as above
T2 construct: extracellular domain; Soluble receptor expressed in FreeStyle293 cells; analyte in Biacore; also called FcgRI; FcgRIa; not shown: His tag at the C terminus
T2 sequence (P12314 16-292): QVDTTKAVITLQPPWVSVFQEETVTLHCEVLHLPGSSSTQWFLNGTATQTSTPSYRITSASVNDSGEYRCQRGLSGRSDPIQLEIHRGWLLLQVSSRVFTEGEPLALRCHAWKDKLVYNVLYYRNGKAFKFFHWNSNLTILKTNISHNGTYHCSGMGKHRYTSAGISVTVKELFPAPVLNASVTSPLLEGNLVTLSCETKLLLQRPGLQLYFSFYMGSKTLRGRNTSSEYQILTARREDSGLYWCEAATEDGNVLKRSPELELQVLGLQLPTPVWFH
Experimental: as §1, §2

[3] = target: T2, FcγRIa extracellular domain with …; assay: SPR (Biacore); He/Con_1a divided by He/Con_2b (FcγRIIb)
Experimental: as §1, §2

[4] = target: T3, FcγRIIa R (FcγRIIa, allotype R, Arg at position 131), extracellular domain with C-terminal His tag (human, UniProt P12318 34-217); assay: Biacore SPR; He/Con_2aR divided by He/Con_2b (FcγRIIb)
T3 construct: extracellular domain; soluble receptor used as Biacore analyte; also called 2aR; FcgRIIa R
T3 sequence (looked up): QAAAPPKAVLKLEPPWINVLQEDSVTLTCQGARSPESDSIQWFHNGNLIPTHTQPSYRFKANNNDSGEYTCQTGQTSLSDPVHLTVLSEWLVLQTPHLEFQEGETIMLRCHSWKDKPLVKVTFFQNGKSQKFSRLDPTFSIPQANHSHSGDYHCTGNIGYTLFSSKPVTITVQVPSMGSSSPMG
Experimental: as §1, §2

[5] = target: T4, FcγRIIb, extracellular domain with C-terminal His tag (human, UniProt P31994 43-217); assay: Biacore SPR; binding relative to GpH7-A5/GpH7-B3/GpL16-k0 (=100)
T4 construct: extracellular domain; soluble receptor used as Biacore analyte; also called 2b; FcgRIIb
T4 sequence (looked up): T1 sequence (looked up)

[6] = target: T3, FcγRIIa R (FcγRIIa, allotype R, Arg at …); assay: as above

Binder	He/Con_2b (IIb binding) [1]	He/Con_1a (Ia binding) [2]	He_1a/2b (Ia/IIb) [3]	IIaR/IIb (He_2aR/2b) [4]	He/Con_2b (IIb binding) [5]	He/Con_2aR (IIaR binding) [6]
B1	41.7 % of control (control = 100)	101 % of control (control = 100)	2.42	–	–	–
B2	41.3 % of control (control = 100)	91.5 % of control (control = 100)	2.22	–	–	–
B3	67.1 % of control (control = 100)	105 % of control (control = 100)	1.57	–	–	–
B4	–	–	–	0.56	310 % of control	173 % of control
B5	–	–	–	0.64	243 % of control	155 % of control
B6	70.1 % of control (control = 100)	107 % of control (control = 100)	1.53	–	–	–
B7	–	–	–	0.77	57.6 % of control	44.4 % of control
B8	–	–	–	0.77	65.9 % of control	50.6 % of control
B9	–	–	–	0.72	218 % of control	156 % of control
B10	78.8 % of control (control = 100)	97.7 % of control (control = 100)	1.24	–	–	–
B11	–	–	–	0.75	193 % of control	144 % of control
B12	–	–	–	0.68	204 % of control	140 % of control
B13	–	–	–	0.62	218 % of control	135 % of control
B14	–	–	–	0.75	181 % of control	135 % of control
B15	–	–	–	0.6	251 % of control	150 % of control
B16	–	–	–	0.66	206 % of control	137 % of control

Binder	He/Con_2b (IIb binding) [1]	He/Con_1a (Ia binding) [2]	He_1a/2b (Ia/IIb) [3]	IIaR/IIb (He_2aR/2b) [4]	He/Con_2b (IIb binding) [5]	He/Con_2aR (IIaR binding) [6]
B17	–	–	–	0.79	152 % of control	120 % of control
B18	55.6 % of control (control = 100)	109 % of control (control = 100)	1.95	–	–	–
B19	–	–	–	0.58	210 % of control	122 % of control
B20	–	–	–	0.61	192 % of control	116 % of control
B21	–	–	–	0.8	134 % of control	107 % of control
B22	–	–	–	0.78	104 % of control	81.9 % of control
B23	–	–	–	0.79	48 % of control	37.8 % of control
B24	–	–	–	0.58	192 % of control	111 % of control
B25	–	–	–	0.6	236 % of control	142 % of control
B26	70.5 % of control (control = 100)	107 % of control (control = 100)	1.52	–	–	–
B27	52.4 % of control (control = 100)	106 % of control (control = 100)	2.01	–	–	–
B28	–	–	–	0.46	379 % of control	175 % of control
B29	80.5 % of control (control = 100)	105 % of control (control = 100)	1.3	–	–	–
B30	–	–	–	0.65	232 % of control	151 % of control
B31	–	–	–	0.67	221 % of control	148 % of control
